According to US20080241129A1, “ADIPOCYTE SECRETED PROTEIN CCDC80 IS A POTENT STIMULATOR OF BONE FORMATION” (Wyeth, priority 2007, published 2008):

Tested on: neonatal mouse calvaria
Experiment: Neonatal calvaria organ culture assay (histomorphometry)
Assay type: cell-based
Protocol: Applicants used mouse neonatal calvaria organ culture assay to examine possible roles for Ccdc80 in bone formation/resorption. Neonatal mouse calvaria were prepared from 4-day-old pups as described previously (Traianedes K et al., Endocrinology 139:3178-84 (1998); Mundy G et al., Science 286:1946-49 (1999)). Briefly, calvaria were excised and cut in half along the sagittal suture. Each half calvaria was placed with the concave surface downward on a stainless steel grid (Small Parts, Inc., Miami, Fla.) in a 12-well tissue culture dish (Becton Dickinson, Oxnard, Calif.). Calvaria were pre-incubated overnight in serum-free BGJ medium with 0.1% BSA. Each well contained 1 ml of BGJ medium. After pre-incubation, calvaria were incubated for 7 days in BGJ medium containing 1% FBS without or with test samples. Calvaria in 12-well plates were incubated in a humidified atmosphere of 95% air and 5% CO2. Fresh test samples were added at the time of medium change on day 4.
After organ culture, calvaria were fixed in 10% neutral phosphate-buffered formaldehyde at room temperature for 72 hours, then decalcified for 5-6 hours in 10% EDTA in PBS. Calvaria in each group were embedded in parallel in the same paraffin block, and 4 μm sections were stained with hematoxylin-eosin. Consistent bone areas (200 μm away from frontal sutures) were selected for histomorphometric analysis. In brief, a 200 μm square grid was placed on each calvaria, and the number of osteoblasts and total bone area were determined with the Osteomeasure System (Osteometrics Inc., Atlanta, Ga.). All cells on the bone surface were counted as osteoblasts.
For this experiment, calvaria were prepared from 4-day old neonatal pups. Calvaria then were incubated for 7 days without (Control), or with serial dilutions of FLAG-purified Ccdc80 protein as shown in FIG. 4. Medium was changed on day 4. After organ culture, calvaria were fixed in 10% neutral phosphate buffered formaldehyde, embedded in paraffin block, sectioned at 4 μm, and stained with hematoxylin and Eosin for histomorphoemetric analysis.

[1] = 1% FLAG-purified Ccdc80 protein, 7 days

B1: FLAG-purified Ccdc80 protein: C-terminally FLAG-tagged human Ccdc80 purified from conditioned medium using anti-FLAG M2 affinity beads (protein)
chain: EPHPHATIRGSHGGRKVPLVSPDSSRPARFLRHTGRSRGIERSTLEEPNLQPLQRRRSVPVLRLARPTEPPARSDINGAAVRPEQRPAARGSPREMIRDEGSSARSRMLRFPSGSSSPNILASFAGKNRVWVISAPHASEGYYRLMMSLLKDDVYCELAERHIQQIVLFHQAGEEGGKVRRITSEGQILEQPLDPSLIPKLMSFLKLEKGKFGMVLLKKTLQVEERYPYPVRLEAMYEVIDQGPIRRIEKIRQKGFVQKCKASGVEGQVVAEGNDGGGGAGRPSLGSEKKKEDPRRAQVPPTRESRVKVLRKLAATAPALPQPPSTPRATTLPPAPATTVTRSTSRAVTVAARPMTTTAFPTTQRPWTPSPSHRPPTTTEVITARRPSVSENLYPPSRKDQHRERPQTTRRPSKATSLESFTNAPPTTISEPSTRAAGPGRFRDNRMDRREHGHRDPNVVPGPPKPAKEKPPKKKAQDKILSNEYEEKYDLSRPTASQLEDELQVGNVPLKKAKESKKHEKLEKPEKEKKKKMKNENADKLLKSEKQMKKSEKKSKQEKEKSKKKKGGKTEQDGYQKPTNKHFTQSPKKSVADLLGSFEGKRRLLLITAPKAENNMYVQQRDEYLESFCKMATRKISVITIFGPVNNSTMKIDHFQLDNEKPMRVVDDEDLVDQRLISELRKEYGMTYNDFFMVLTDVDLRVKQYYEVPITMKSVFDLIDTFQSRIKDMEKQKKEGIVCKEDKKQSLENFLSRFRWRRRLLVISAPNDEDWAYSQQLSALSGQACNFGLRHITILKLLGVGEEVGGVLELFPINGSSVVEREDVPAHLVKDIRNYFQVSPEYFSMLLVGKDGNVKSWYPSPMWSMVIVYDLIDSMQLRRQEMAIQQSLGMRCPEDEYAGYGYHSYHQGYQDGYQDDYRHHESYHHGYPY
modifications: left off: small tags and cut ends
With B1 the “bone resorption (histologically)” value [1] was “enhanced”, the number of osteoblasts [1] was “not significantly altered” and the osteoblast activation [1] was “activated”. The “increase in total bone area” value (1% FLAG-purified Ccdc80 protein, 7 days, P<0.0001) was 62%, the osteogenic activities (purified protein sample diluted as low as 0.01%, 7 days) was “clearly observed” and the “number of osteoblasts (summary)” value (summary statement) was “unaltered”. For the same molecule, the “osteoblast activation (summary)” value (summary statement) was “activated osteoblasts”.
